Percent of the total concentration as dimer data for 1 substance are collected here from paper PMC3092815 (Proteins, 2011).

The target of the experiment is Clostridium perfringens archaeal-type phosphoenolpyruvate carboxylase (PepcA) (Clostridium perfringens) (UniProt Q8XLE8). Briefly: AUC.

The substance “Clostridium perfringens archaeal-type phosphoenolpyruvate carboxylase (PepcA) (from UniProt Q8XLE8 1-537) (enzyme)” registered a percent of the total concentration as dimer of 30%.
